Literature values in publication PMC7550652.

Biological target: Calmodulin (Homo sapiens) (UniProt P0DP23)

ERα (from UniProt P03372)
Kd: 0.16 nM
